Results as given in the supplement of paper PMC10567573.
± gives the standard deviation.

Test: protein stability index of a GFP-peptide fusion (GPS, HEK-293T) (PSI 1-6); higher = more stable
[1] = treatment: DMSO, c terminus: a fixed tail appended
[2] = treatment: MLN4924 1 uM, 8 h, c terminus: a fixed tail appended
[3] = treatment: DMSO, c terminus: native
[4] = treatment: MLN4924 1 uM, 8 h, c terminus: native
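Note: 24-mer peptide tiles fused after GFP, lentivirally expressed, FACS-sorted into six equal bins by GFP/DsRed ratio, decoded by Illumina sequencing, PSI is the read-weighted mean bin number.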

Sequence	protein stability index [1]	protein stability index [2]	protein stability index [3]	protein stability index [4]
NNQEEETEFKELDGLREALANLRG [CCDC89]	4.71 ± 0.29	4.58 ± 0.4		
FSLKTFKRKSEVERAVKRMRHLST [MATN2]	2.54 ± 0.51	2.82 ± 0.46		
IDAVPVDENLFTGEDLDELEEELN [ZC3H15]	5.53 ± 0.21	5.51 ± 0.19		
ERLTKQEKRPLFLAPDFDRWLDES [HACD3]	3.87 ± 0.21	3.93 ± 0.38		
TLALILQIPTQNTQARQVMEREFN [PPFIA4]	2.32 ± 0.34	2.39 ± 0.26		
QPPTTTVARSGTPAVENKQQIGDA [PLK2]	5.4 ± 0.16	5.37 ± 0.37		
FEKSRYETYIHLLAMKIKVGSDDL [PSD2]	2.53 ± 1	2.55 ± 0.61		
AELHAHGPAAFVDYFERNWEPRRD [ZSWIM9]	3.89 ± 0.3	4.07 ± 0.23		
ITGLPLDNPSVLSGPMQAALQAAA [SMG5]	3.08 ± 0.2	3.11 ± 0.082		
PAVRQLLPCARVQICRAQGLETLF [ZSWIM9]	2.19 ± 0.49	2.5 ± 0.64		
MEVPQPEPAPGSALSPAGVCGGAQ [CDC25B]	5.25 ± 0.34	5.23 ± 0.33		
SVLDDLLYAVGGHDGSSYLNSVER [KLHL20]	2.71 ± 0.46	3.03 ± 0.56		
SVLSACDNLSDLVMVRWNKSLEWS [IQUB]	2.04 ± 0.24	2.33 ± 0.12		
RPDKALSEGDLKNAIRVHHALATR [PSD2]	4.07 ± 0.1	4.31 ± 0.3		
EAVKYYTLEEIQKHNHSKSTWLIL [CYB5A]	2.44 ± 0.65	2.3 ± 0.24		
ETCDLGKIKPEARRYLEKSIKMGK [NLN]	4.09 ± 0.18	4.45 ± 0.23		
ETVDLVLKLKNKLLQADREHLPVK [DENND6A]	2.86 ± 0.41	2.72 ± 0.38		
ASIQNHVRKREAPAPEAESKQTEK [EFHC1]	5.36 ± 0.28	5.32 ± 0.37		
GDEFSLREHELLCRADHGLLLERA [ISL2]	4.06 ± 0.49	3.65 ± 0.35		
HESVCKYYLCGFCPAELFTNTRSD [LUC7L3]	2.17 ± 0.33	2.54 ± 0.29		
SFGFPRTVKHIDAALSEENTGKTY [MMP1]	4.13 ± 0.25	3.94 ± 0.16		
GRKKYDIDPRNGIPKLTPGDNPYM [SPATS1]	3.57 ± 0.18	3.71 ± 0.32		

Sequence	protein stability index [1]	protein stability index [2]	protein stability index [3]	protein stability index [4]
VPFDIFTEEVKFYQLGEEALLKFR [KCNA4]	2.32 ± 0.36	2.54 ± 0.19		
PAYVGPEILSSRASYSGKAADVWS [TRIB3]	3.09 ± 0.2	3.18 ± 0.19		
LHVNPKKQTIGNSCKACGYRGMLD [EIF5]	2.35 ± 0.29	2.44 ± 0.64		
YYSVETVTLLVALKVRYRERITIL [PPP2CA]	2.63 ± 0.69	2.56 ± 0.58		
PQYAERLLSGAFKKRRLPPVHIHP [FOXJ1]	2.76 ± 0.22	2.9 ± 0.1		
ILTFLRAGKLRLLREMCALSFQEE [KCNG1]	3.24 ± 0.69	2.19 ± 0.28		
YTVKDKATGEVLGQFYLDLYPREG [NLN]	3.1 ± 0.69	2.8 ± 0.77		
LRYLSSIWNILDLVVILLSIVAVG [PKD2L1]	2.66 ± 0.65	3.3 ± 0.32		
PTHLSNGQMSTPETPQPSPPGGSG [HNF4A]	5.15 ± 0.15	4.98 ± 0.24		
GLGAGFGGGFAGGDGLLVGSEKVT [KRT16]	3.98 ± 0.11	4.081 ± 0.035		
LSLGALVALCWQLGLLFERHWHRP [SCNN1D]	3.09 ± 0.24	3.16 ± 0.19		
KLLPHQPRIVEMKKGSNGYGFYLR [PDZK1]	2.37 ± 0.12	2.47 ± 0.6		
SVMFRKWRDSKGKDKEYAEIIRKQ [UBE2R2]	2.98 ± 0.28	2.99 ± 0.18		
SLSVFTEPNRHFYREMQSFSEDI [FBXO33]			3.26 ± 0.32	3.33 ± 0.27
ADEDDDRDVALQIHFTLIQAFCCE [GADD45A]	2.28 ± 0.35	2.36 ± 0.085		
GGEGVEVELLHNTSYTRQACLVSC [SCNN1D]	2.9 ± 0.2	2.55 ± 0.31		
NDTNSFTVDCEPSDLFRLQEYNIP [CDS2]	3.65 ± 0.16	3.74 ± 0.21		
RLNKLRLESEGSPETLTNLRKGYL [HACD3]	3.25 ± 0.23	3.35 ± 0.33		
RDTRDYAPPPRDYTYRDYGHSSSR [RBMX]	4.01 ± 0.14	3.65 ± 0.77		
KLIRDFDEKQQEANETLAEMEEEL [VTI1B]	4.89 ± 0.32	5.3 ± 0.19		
WRWQLYAAQSTKSPWNFLGDELYE [CLPTM1]	2.79 ± 0.38	2.39 ± 0.3		
HRTHTGERPYGCDECEKAYFYMSC [ZNF649]	2.68 ± 0.17	2.54 ± 0.26		

Sequence	protein stability index [1]	protein stability index [2]	protein stability index [3]	protein stability index [4]
STPLTATPGGRGDMKYGIYAVENE [VTI1B]	4.53 ± 0.19	4.42 ± 0.22		
VQADQERERQRRLEVEREAEKKRE [LRRC59]	5.52 ± 0.093	5.64 ± 0.17		
HLEVKFMNPYNAVLTKKFQVTMRG [FBXO39]	2.17 ± 0.22	2.28 ± 0.22		
MAAPPKAPIRVRNLTIRAGALTGK [DMRTC1]	3.57 ± 0.33	3.73 ± 0.22		
GAIAVFVYASDKEWIRFDQSNVLC [PTGFR]	3.02 ± 0.34	2.87 ± 0.47		
KSPTGLKLKNDTENHQPVSLSDLE [ZNF75A]	5.3 ± 0.23	5.188 ± 0.043		
TNKMKSPETKQRKLSPLRLSVSNN [KMT2E]	4.45 ± 0.18	4.41 ± 0.083		
RNRKLKCTFSLTHPANRSCRETGS [SLC22A15]	3.37 ± 0.16	3.44 ± 0.23		
QGEEPWVQVSPEFKDSAGKSPTGL [ZNF75A]	4.87 ± 0.22	5.04 ± 0.22		
TIDAVPNAIPGRTDIELEIYGMEG [ZNF207]	3.86 ± 0.27	4 ± 0.093		
VQDMGQEDMLLPLAWRIVNDTYRT [CCNC]	2.37 ± 0.21	2.57 ± 0.43		
CMWSKKCSGVACLVKDNPQRSYFL [WASL]	2.26 ± 0.29	2.04 ± 0.27		
AIMNALIEAGAHMDATNAFKKTAY [FEM1A]	2.51 ± 0.39	2.11 ± 0.35		
LSSQCFSNISRPRDNPMCLKCDLQ [M1AP]	3.2 ± 0.035	3.27 ± 0.15		
SLGRHKRTHTGEKPYTCSVCGKSF [ZNF8]	3.2 ± 0.58	3.69 ± 0.6		
QEVTKLQQQVKTNGAGVTVLRREI [FBXO28]	3.97 ± 0.25	4.03 ± 0.45		
EVDAAPPVDLNKILEDMRCQYEAL [KRT36]	4.59 ± 0.13	4.68 ± 0.096		
YKCSDCGKTFKQSSNLGQHQRIHT [ZNF232]	4.22 ± 0.18	4.3 ± 0.45		
MRQFLRGLDFLHANCIVHRDLKPE [CDK4]	2.21 ± 0.22	2.23 ± 0.13		
PDCLRACQEQIEALLESSLRQAQQ [CCND1]	3.23 ± 0.34	3.59 ± 0.38		
PPKKPSNWRRKHEEFIATIRAAKG [ZC2HC1A]	3.65 ± 0.15	3.82 ± 0.14		
PEASHLRFRRFRFQEAAGPREALS [ZNF263]	3.15 ± 0.42	3.31 ± 0.51		

Sequence	protein stability index [1]	protein stability index [2]	protein stability index [3]	protein stability index [4]
SQLSMKASLENSLEETKGRYCMQL [KRT16]	3.44 ± 0.18	3.61 ± 0.31		
NEGLMKWENRHEGVFKFLRSEAVA [ELF3]	3.01 ± 0.11	3.09 ± 0.22		
VELPCRISPGKNATGMEVGWYRPP [MOG]	2.33 ± 0.091	2.32 ± 0.28		
LNEKRTFFHLSALKGYLYAVGGRN [KLHL13]	2.49 ± 0.68	2.33 ± 0.46		
KSGPGDGFFSSAFQARLSGNNLHN [POMT2]	3.04 ± 0.096	2.95 ± 0.41		
GADKEILTTKGEMPVQLTSRREIR [ANKRD40]	4.83 ± 0.13	4.95 ± 0.19		
YSHEVSLTADSRKSHLIFPQPNYA [PCDHGA10]	2.79 ± 0.48	2.74 ± 0.29		
SESTNTTIEDEDTKVRKQEIIKVT [CAMK2A]	5.32 ± 0.24	5.31 ± 0.18		
RYLGRPPSPTSPPPPELMDVSLVG [DYRK1B]	3.98 ± 0.26	4.07 ± 0.29		
REKEDYLHLKRQPKRRWLFWNSPS [RHOBTB2]	2.42 ± 0.23	2.56 ± 0.18		
RIYRMIKLGLGIDEDEVAAEEPNA [HSP90AB1]	2.95 ± 0.24	3.19 ± 0.38		
ACPVCSKMVPRYDLNRHLDEMCAN [FAN1]	2.6 ± 0.49	2.27 ± 0.17		
MAAHLKKRVYEEFTKVVQPQEEIA [INTS4]	3.67 ± 0.093	3.68 ± 0.7		
QGVHQGAGFQDIPKRCLKAREHFG [TSN]	3.31 ± 0.36	2.9 ± 0.27		
ASDYFKAMFTGGMKEQDLMCIKLH [KLHL13]	2.13 ± 0.17	2.13 ± 0.25		
TATEELEKTQDDLMKHQTNISELK [EPB41L3]	5.69 ± 0.23	5.47 ± 0.39		
KLPSRRQPGLLHLQSCGDLHTFTP [FAM189A2]	4.92 ± 0.19	4.94 ± 0.15		
QPPPPRRVTNVGSLLLTPQENESL [WASL]	4.73 ± 0.083	4.66 ± 0.27		
GPAGGLADLSSGSSGEDDDFKSCP [PWWP2B]	5.43 ± 0.22	5.45 ± 0.26		
RHSYQVYRQPIPVQELVLEDLQDG [NET1]	4.38 ± 0.083	4.24 ± 0.24		
PAQLSEDITRYYLCLQLRDDIVSG [EPB41L3]	2.3 ± 0.24	2.43 ± 0.35		
ESLSAIEAELEKVAHQLQALRRG [CHGA]			3.19 ± 0.42	3 ± 0.72
